Results: patent US6713042B2, “Ascorbic acid analogs for metalloradiopharmaceuticals” (Bristol-Myers Squibb Pharma Company, priority 2001, dated 2004)

Assays:
[1] = Solution stability of the 90Y-labeled conjugate in ascorbic acid buffer, RCP by HPLC (Method 1); format: physicochemical; settings: for RCP (radiochemical purity): 0.1 M ascorbic acid buffer pH 5.0
Experimental: The integrity of a radiopharmaceutical is measured by the radiochemical purity (RCP) of the radiolabeled compound using ITLC or more preferably HPLC. The advantage of using HPLC is that radio-impurities caused by radiolytic degradation can be separated from the radiopharmaceutical under optimized chromatographic conditions. […] The radiopharmaceutical compositions of this invention are effective in maintaining the long-term stability of samples that have been frozen, thawed, and re-tested up to 5 days post-labeling.
The initial RCP of a radiopharmaceutical is largely dependent on radiolabeling conditions such as pH, heating temperature and time. Once a radiopharmaceutical is prepared in high yield, the ability of an antioxidant to stabilize a radiopharmaceutical composition is measured by the RCP change over a certain period of time.
The integrity of a radiopharmaceutical is measured by the radiochemical purity (RCP) of the radiolabeled compound using ITLC or more preferably HPLC. The advantage of using HPLC is that radio-impurities caused by radiolytic degradation can be separated from the radiopharmaceutical under optimized chromatographic conditions. […] The radiopharmaceutical compositions of this invention are effective in maintaining the long-term stability of samples that have been frozen, thawed, and re-tested periodically for 5 days.
The initial RCP of a radiopharmaceutical is largely dependent on radiolabeling conditions such as pH, heating temperature and time. Once a radiopharmaceutical is prepared in high yield, the stability of the radiopharmaceutical composition is measured by the RCP change of the radiopharmaceutical over a certain period of time.
Analytical Methods. HPLC method 1 used a HP-1100 HPLC system with a UV/visible detector (Δ=220 nm), an IN-US radio-detector, and a Zorbax C18 column (4.6 mm×250 mm, 80 A pore size). The flow rate was 1 mL/min with the mobile phase starting with 92% solvent A (0.025 M ammonium acetate buffer, pH 6.8) and 8% solvent B (acetonitrile) to 90% solvent A and […] at 18 min, followed by an isocratic wash using 40% of solvent A and 60% solvent B from 19 to 25 min.
(2S)-2-[({2,6-Dimethyl-4-[3-(N-{2-[3-sulfo-2-(3-sulfo-2-{2-[1,4,7,10-tetraaza-4,7,10-tris(carboxymethyl) cyclododecyl]acetylamino}propyl)propyl]ethyl}carbamoyl)-propoxy]phenyl}sulfonyl)amino]-3-({7-[(imidazol-2-ylamino)methyl]-1-methyl-4-oxo(3-hydroquinolyl)}-carbonylamino)propanoic acid trifluoroacetate was prepared as disclosed in U.S. patent application Ser. No. 09/456,300 and was subsequently dissolved in 0.1 M AA buffer (pH 5.0) to give a concentration of 100 μg/mL. The resulting solution was immediately degassed under vacuum for another 1-2 min. To a clean sealed 5 mL vial was added 5.0 mL of 0.1 M ascorbic acid buffer (pH 5.0) containing 500 μg of (2S)-2-[({2,6-Dimethyl-4-[3-(N-{2-[3-sulfo-2-(3-sulfo-2-{2-[1,4,7,10-tetraaza-4,7,10-tris(carboxymethyl) cyclododecyl]acetylamino}propyl) propyl]ethyl}carbamoyl)propoxy]phenyl}sulfonyl)amino]-3-({7-[(imidazol-2-ylamino)methyl]-1-methyl-4-oxo(3-hydroquinolyl)}carbonylamino)propanoic acid trifluoroacetate. The solution was degassed again under vacuum. Upon addition of ˜75 μL of ^90YCl3 solution (101.5 mCi) in 0.05 N HCl, the reaction mixture was heated at 95° C. for 30 min. After cooling to room temperature, a sample of the resulting solution was diluted 50-fold with saline containing sodium gentisate (10 mg/mL), and was then analyzed by HPLC (Method 1, injection volume 5 μL). The resulting mixture was then kept in a dry-ice box (−78° C.) for 5 days. Samples were analyzed at t=0 (RCP=98.5%), 24 h (RCP=98.4%), 68 h (RCP=98.0%), and 120 h (RCP=98.8%). The retention time was 14.8 min.

[2] = Solution stability of the 111In-labeled conjugate in ascorbic acid buffer, RCP by HPLC (Method 3); format: physicochemical; settings: for RCP (radiochemical purity): 0.1 M ascorbic acid buffer pH 6.0
Experimental: The integrity of a radiopharmaceutical is measured by the radiochemical purity (RCP) of the radiolabeled compound using ITLC or more preferably HPLC. The advantage of using HPLC is that radio-impurities caused by radiolytic degradation can be separated from the radiopharmaceutical under optimized chromatographic conditions. […] The radiopharmaceutical compositions of this invention are effective in maintaining the long-term stability of samples that have been frozen, thawed, and re-tested up to 5 days post-labeling. The initial RCP of a radiopharmaceutical is largely dependent on radiolabeling conditions such as pH, heating temperature and time. Once a radiopharmaceutical is prepared in high yield, the ability of an antioxidant to stabilize a radiopharmaceutical composition is measured by the RCP change over a certain period of time. The integrity of a radiopharmaceutical is measured by the radiochemical purity (RCP) of the radiolabeled compound using ITLC or more preferably HPLC. The advantage of using HPLC is that radio-impurities caused by radiolytic degradation can be separated from the radiopharmaceutical under optimized chromatographic conditions. […] The radiopharmaceutical compositions of this invention are effective in maintaining the long-term stability of samples that have been frozen, thawed, and re-tested periodically for 5 days. The initial RCP of a radiopharmaceutical is largely dependent on radiolabeling conditions such as pH, heating temperature and time. Once a radiopharmaceutical is prepared in high yield, the stability of the radiopharmaceutical composition is measured by the RCP change of the radiopharmaceutical over a certain period of time. HPLC method 3 used a HP-1100 HPLC system with a UV/visible detector (k=220 nm), an IN-US radio-detector, and a Zorbax C18 column (4.6 mm×250 mm, 80 A pore size). […] After cooling to room temperature, a sample of the resulting solution was then analyzed by HPLC (Method 3, injection volume=10 μL). […] Samples were analyzed at t 0 (RCP 98.2%) and 24 h (RCP=97.6%). […]

[3] = 5 mL AA solution containing 100 mg AA, pH=5.0

Row | Substance | RCP while stable over at least 5 days [1, 3] | remains stable (time) [1, 3] | RCP (radiochemical purity) ([1]; 24 h, kept in dry-ice box (-78° C.)) | RCP (radiochemical purity) ([1]; 68 h, kept in dry-ice box (-78° C.)) | RCP (radiochemical purity) ([1]; 120 h, kept in dry-ice box (-78° C.)) | RCP (radiochemical purity) ([1]; t=0, 100 mCi 90Y) | remains stable in solution (time) ([2]; 0.1 M ascorbic acid buffer pH 6.0, room temperature) | RCP (radiochemical purity) ([2]; 24 h, kept at room temperature) | RCP (radiochemical purity) ([2]; t 0, 2.8 mCi 111In)
1 | ^90Y-(2S)-2-[({2,6-Dimethyl-4-[3-(N-{2-[3-sulfo-2-(3-sulfo-^2-{^2-[1,4,7,10-tetraaza-4,7,10-tris(carboxymethyl) cyclododecyl]acetylamino}--propyl)propyl]ethyl}carbamoyl)-propoxy]phenyl}sulfonyl)amino]-^3-({^7-[(imidazol-2-ylamino)methyl]-1-methyl-4-oxo(3-hydroquinolyl)}-carbonylamino)propanoic acid trifluoroacetate [Example 2] | > 96% | at least 5 days | 98.4% | 98.0% | 98.8% | 98.5% |  |  | 
2 | ^111In-(2S)-2-[({2,6-Dimethyl-4-[3-(N-{2-[3-sulfo-2-(3-sulfo-2-{2-[1,4,7,10-tetraaza-4,7,10-tris(carboxymethyl) cyclododecyl]acetylamino}--propyl)propyl]ethyl}carbamoyl)-propoxy]phenyl}sulfonyl)amino]-3-({7-[(imidazol-2-ylamino)methyl]-1-methyl-4-oxo(3-hydroquinolyl)}-carbonylamino)propanoic acid trifluoroacetate [Example 3] |  |  |  |  |  |  | at least 24 hours | 97.6% | 98.2%
